Sequences and labels used below:
B1: C-4-2 (C-4 F4) (peptide)
peptide: CVAFCIEHHCWTC
modifications: disulfide (positions not given here)
B2: B-2-3 (B-2 N8A9) (peptide)
peptide: CVFAHNYNALVC
modifications: disulfide 1-12 (inferred)
B3: C-4-6 (C-4 A11) (peptide)
peptide: CVAYCIEHHCATC
modifications: disulfide (positions not given here); not fully specified
B4: B-2-4 (B-2 10 N8) (peptide)
peptide: CVFAHNYNYC
modifications: disulfide 1-10 (inferred)
B5: A-1-5 (A-1 Y39) (peptide)
peptide: CVYTSDYAYC
modifications: disulfide 1-10 (inferred)
B6: C-4-4 (C-4 10A5Q7) (peptide)
peptide: CVAYAIQHHC
modifications: disulfide 1-10 (inferred)
B7: B-2-5 (B-2 A7) (peptide)
peptide: CVFAHNANYLVC
modifications: disulfide 1-12 (inferred)
B8: C-4-5 (C-4 A4) (peptide)
peptide: CVAACIEHHCWTC
modifications: disulfide (positions not given here)
B9: chemically synthesized peptide C-4 without GA flanks (C-4-1, C4 parent) (peptide)
peptide: CVAYCIEHHCWTC
modifications: disulfide 1-13, 5-10
B10: chemically synthesized peptide B-2 (B-2-1, B-2 parent) (peptide)
peptide: CVFAHNYDYLVC
modifications: disulfide 1-12
B11: A-1-3 (A-1 N6N8Y9) (peptide)
peptide: CVFTSNYNYC
modifications: disulfide 1-10 (inferred)
B12: A-1-2 (A-1 N6Y9) (peptide)
peptide: CVFTSNYAYC
modifications: disulfide 1-10 (inferred)
B13: A-1-4 (A-1 N6) (peptide)
peptide: CVFTSNYAFC
modifications: disulfide 1-10 (inferred)
B14: B-2-2 (B-2 N8) (peptide)
peptide: CVFAHNYNYLVC
modifications: disulfide 1-12 (inferred)
B15: C-4-3 (C-4 Q7) (peptide)
peptide: CVAYCIQHHCWTC
modifications: disulfide (positions not given here)
B16: chemically synthesized peptide A-1 (A-1-1, A-1 parent) (peptide)
peptide: CVFTSDYAFC
modifications: disulfide 1-10
B17: C-4-7 (cyclic with peptide bond) (peptide)
peptide: cyclo(HHCWTVAYCIE)
modifications: disulfide 3-9 (inferred)
B18: A-1-6 (A1 N6Y7Y9) (peptide)
peptide: CVFTSNAAYC
modifications: disulfide 1-10 (inferred)

Bridge positions count the residues as written; N and C are the ends. Ends that are not written are not given here.

This assay addresses Prostate specific antigen (PSA), purified from human seminal fluid (human, UniProt P07288 25-261). Put plainly: cell-based or functional assay.
B1: the PSA-peptide/PSA ratio is 2.3 ratio.

On to B2, for which the PSA-peptide/PSA ratio was found to be 2.6 ratio.

With B3, the PSA-peptide/PSA ratio stood at 0.9 ratio.

For B4, the PSA-peptide/PSA ratio amounted to 1.9 ratio.

Take B5: the PSA-peptide/PSA ratio was found to be 1 ratio.

Consider B6, for which the PSA-peptide/PSA ratio stood at 1.1 ratio.

For the molecule B7, the PSA-peptide/PSA ratio came out at 1.1 ratio.

As for B8, the PSA-peptide/PSA ratio was determined as 1 ratio.

Consider B9, for which the PSA-peptide/PSA ratio was 2.1 ratio.

For the molecule B10, the PSA-peptide/PSA ratio was 3 ratio.

Consider B11, for which the PSA-peptide/PSA ratio is 1.9 ratio.

For B12, the PSA-peptide/PSA ratio was found to be 2.3 ratio.

In the case of B13, the PSA-peptide/PSA ratio came to 2.4 ratio.

Consider B14, for which the PSA-peptide/PSA ratio was 3.1 ratio.

Consider B15, for which the PSA-peptide/PSA ratio amounted to 2.1 ratio.

With B16, the PSA-peptide/PSA ratio turned out to be 2.3 ratio.

For B17, the PSA-peptide/PSA ratio is 0.8 ratio.

As for B18, the PSA-peptide/PSA ratio turned out to be 1 ratio.

The record behind these values is patent US20040106557A1 (LICENTIA, published 2004).
